Consider four molecules from patent US20190100588A1.

Residue numbers refer to the chain shown, from its start.

The target of this experiment is Pep1/Pep2. Kind of experiment: ELISA, coated peptide. For orientation: An ELISA detects its analyte on a solid surface through an enzyme-linked reagent.

B1: antibody 617 (antibody, V domains shown)
VH: QVQLQLPGAELVKPGASVKVSCKASAYTFTSYWMHWVKQRPGQGLEWIGRIHPSDSDTNYNQNFKGKATLTVDKSSNTAYMQLSSLTSEDSAVYYCATGFSFWGQGTLVTVSA
VL: DIVMTQSHKFMSTSVGDRVSITCKASQDVSTTVAWYQQKPGQSPKLLIYSASYRYTGVPDRFTGSGSGTDFTFTISSVQAEDLAVYYCQQHYSTRPTFGGGTKLEIK
On to B1, for which the ELISA O.D. worked out at 0.102 O.D.

B2: antibody 616 (antibody, V domains shown)
VH: QIHLVQSGPELKKPGETVRISCKASGYTFTTYGMSWVKQAPGKALKWMGWINTYSGVPTYADDFKGRFAFSLETSASTAYLQINNLKNEDTATYFCTREGSTMVTRYYFDYWGQGTTLTVSS
VL: DIVMTQAAPSVPVTPGESVSISCRSSKSLLHSNGNTYLYWFLQRPGQSPQLLIYRMSNLASGVPDRFSGSGSGTAFTLRISRVEAEDVGVYHCMQHLESPYTFGGGTTLEIK
B2: the ELISA O.D. is 0.069 O.D.

B3: antibody 619 (antibody, V domains shown)
VH: B2 VH with H3Q, R19K, A44G, T97A
VL: B2 VL with L51V, H92Y, T108K
Molecule B3 returned an ELISA O.D. of 0.064 O.D.

B4: antibody 623 (antibody, V domains shown)
VH: B2 VH with H3Q, R19K, A44G, Y94F, T97A
VL: B2 VL with H92Y, S99Y, Y101S, T108K
Regarding B4, the ELISA O.D. was determined as 0.098 O.D.
